Measurements reported in patent US20250012721.

How the values were obtained:
[1] = target: T1, substrate peptide 3: 2Abz-GYLGRSYKVG-Lys(Dnp)D-OH (not fully specified)
T1 chain: GYLGRSYKVG

[2] = target: T2, substrate peptide 2: 2Abz-SLGRKIQ-Lys(Dnp)-NH2
T2 chain: SLGRKIQ

[3] = target: T3, substrate peptide 1: 2Abz-GLQRALEI-Lys(Dnp)-NH2
T3 chain: GLQRALEI

B1: double-stranded activated C1s protein (protein)
chain 1: EPTMYGEILSPNYPQAYPSEVEKSWDIEVPEGYGIHLYFTHLDIELSENCAYDSVQIISGDTEEGRLCGQRSSNNPHSPIVEEFQVPYNKLQVIFKSDFSNEERFTGFAAYYVATDINECTDFVDVPCSHFCNNFIGGYFCSCPPEYFLHDDMKNCGVNCSGDVFTALIGEIASPNYPKPYPENSRCEYQIRLEKGFQVVVTLRREDFDVEAADSAGNCLDSLVFVAGDRQFGPYCGHGFPGPLNIETKSNALDIIFQTDLTGQKKGWKLRYHGDPMPCPKEDTPNSVWEPAKAKYVFRDVVQITCLDGFEVVEGRVGATSFYSTCQSNGKWSNSKLKCQPVDCGIPESIENGKVEDPESTLFGSVIRYTCEEPYYYMENGGGGEYHCAGNGSWVNEVLGPELPKCVPVCGVPREPFEEKQR
chain 2: IIGGSDADIKNFPWQVFFDNPWAGGALINEYWVLTAAHVVEGNREPTMYVGSTSVQTSRLAKSKMLTPEHVFIHPGWKLLEVPEGRTNFDNDIALVRLKDPVKMGPTVSPICLPGTSSDYNLMDGDLGLISGWGRTEKRDRAVRLKAARLPVAPLRKCKEVKVEKPTADAEAYVFTPNMICAGGEKGMDSCKGDSGGAFAVQDPNDKTKFYAAGLVSWGPQCGTYGLYTRVKNYVDWIMKTMQENSTPRED
- Kcat/Km [1]: 15.4
- Kcat/Km [2]: 1.45
- Kcat/Km [3]: 1.67
